Laboratory results from patent US20040023887A1 (published 2004).

Legend:
[1] = target: T1, human insulin receptor (HIR) (human, UniProt P06213-2 28-1370, limits assumed); assay: radio-receptor assay, label 125I-insulin, HIR
T1 construct: Also used for the WGA-purified recombinant human insulin receptor of the kinase assay

[2] = target: T2, soluble human insulin receptor-immunoglobulin heavy chain chimera (sIR-Fc) (human, UniProt P06213 28-956, limits assumed, Eu3+ (LANCE) labelled in the TR-FRET assays); assay: FP competition, label FITC-RP9, sIR-Fc
T2 construct: extracellular domain; also called HIR-immunoglobulin heavy chain chimera; not shown: immunoglobulin heavy chain constant domains

[3] = target: T2, soluble human insulin …; assay: TR-FRET competition, label b-S175, Eu-sIR-Fc
[4] = target: T3, soluble HIR ectodomain (sIR) (human, UniProt P06213-2 28-944, limits assumed); assay: FP competition, label FITC-RP9, sIR
T3 construct: extracellular domain

[5] = target: T2, soluble human insulin …; assay: TR-FRET competition, label b-RP9, Eu-sIR-Fc

IC50 [1]: 44 nM
IC50 [2]: 10 nM
IC50 [3]: 6 nM
IC50 [4]: 0.03 nM
IC50 [5]: 42 nM
Binder: GSLDESFYDWFERQLGKK (also called S371) [RP9]
